According to the supplement of paper PMC10724198:
± gives the standard deviation of the averaged measurements.

test system: Saccharomyces cerevisiae; assay: protein stability index of tFT-peptide fusion (C-terminal peptide) (PSI (0-1 scale)); higher = more stable (slower turnover); conditions: genetic background: wild type; temperature: 30 C
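Further: PSI is a weighted mean of sequencing reads over stability bins, variants kept only with over 10 reads, mCherry proximal and sfGFP distal, peptide attached via GGGS linker.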

Sequence	protein stability index
LREENKKSETKR	0.705 ± 0.027
LRFRTVTRSGLR	0.626 ± 0.048
LRGDGGLFGDSG	0.655 ± 0.035
LRGLAVWCGYFS	0.619 ± 0.02
LRGRRPFSQRAT	0.662 ± 0.034
LRGRYNDVRHGK	0.708 ± 0.053
LRHSCSTYRIFS	0.683 ± 0.028
LRIGVEAGRAHR	0.648 ± 0.033
LRIRSTSSPPRP	0.74 ± 0.015
LRKVIGVSFCLA	0.542 ± 0.049
LRLPPPPPLPHV	0.704 ± 0.033
LRMWFGLMRPDA	0.66 ± 0.034
LRNNKIKLIQKK	0.7809 ± 0.0034
LRNWIGGTLGGG	0.7 ± 0.0095
LRPASPVGRQTQ	0.691 ± 0.04
LRPFLFSALPLT	0.672 ± 0.01
LRPLKVSGGGRG	0.685 ± 0.045
LRPSPGYRLGIH	0.791 ± 0.1
LRPVPLCPAALL	0.695 ± 0.037
LRRPSPPTPSPP	0.86 ± 0.2
LRRVKSGPYFRF	0.684 ± 0.074
LRSLLYDKVISL	0.676 ± 0.055
LRSMSPPPHSLA	0.688 ± 0.058

Sequence	protein stability index
LRTHPPGPLPLA	0.654 ± 0.12
LRTLALSYTSLT	0.664 ± 0.035
LRVRTLGLPLVY	0.569 ± 0.026
LRVYCVIPLSGM	0.526 ± 0.049
LSARVSYRITLR	0.599 ± 0.019
LSASAWCSSLTR	0.714 ± 0.047
LSCALCLLGFRC	0.647 ± 0.029
LSCFVFRLSWFL	0.556 ± 0.11
LSCLFYSYSVSS	0.607 ± 0.068
LSDFFLDREGRV	0.654 ± 0.034
LSDIDLLGLPIL	0.66 ± 0.085
LSEDGGHRWHRI	0.796 ± 0.087
LSELCFAPRSPE	0.706 ± 0.046
LSFAVFIDFFTA	0.5223 ± 0.003
LSFFLFLLSPFY	0.582 ± 0.028
LSFFYLLSSYFL	0.62 ± 0.019
LSFLSDFCLWVL	0.659 ± 0.053
LSFPAPLPLFNT	0.767 ± 0.037
LSFSSLYFPSLC	0.651 ± 0.081
LSFTSVLGQIPV	0.705 ± 0.039
LSGVSGALVFVG	0.676 ± 0.047
LSLLFLSLSLLR	0.61 ± 0.042
LSLPHPSPLSFS	0.718 ± 0.038

Sequence	protein stability index
LSLPSPRPPPSP	0.713 ± 0.063
LSLSVNLPLFPT	0.648 ± 0.067
LSNFLFYGLCPG	0.651 ± 0.081
LSNLQPPISVPL	0.6473 ± 0.006
LSPDSLGVLVEY	0.6272 ± 0.0058
LSPGCLFLLPFL	0.701 ± 0.066
LSPLLSLPRCPT	0.7 ± 0.04
LSPLPHGLPFST	0.736 ± 0.015
LSPPLPRAPHLS	0.678 ± 0.077
LSPPQRISLIPY	0.659 ± 0.03
LSPPRSAPPPPR	0.699 ± 0.014
LSPSDSPSPPAS	0.6499 ± 0.0016
LSPTRPATRSPP	0.6826 ± 0.0014
LSQPRDGMRWCA	0.6191 ± 0.0035
LSRMTNFKEKEG	0.669 ± 0.03
LSSCVRVSFLFF	0.588 ± 0.028
LSSPPHVRSSPF	0.695 ± 0.029
LSSPPSRPFAPS	0.721 ± 0.089
LSSPSPSCSLPP	0.701 ± 0.077
LSSPTHTPHPPS	0.701 ± 0.0097
LSSSWDLTHFDC	0.714 ± 0.033
LSTPASVLLSSG	0.682 ± 0.011
LSTPPDLNPLIF	0.654 ± 0.034

Sequence	protein stability index
LSVEAGRGELLW	0.69 ± 0.067
LSVGPIWFSCQA	0.605 ± 0.023
LSVLHATFGRCD	0.645 ± 0.017
LSVQVLSLRPRA	0.688 ± 0.036
LSYCLLALFFPL	0.501 ± 0.009
LTAGGGEACGPP	0.625 ± 0.015
LTFFRSSPPRPY	0.739 ± 0.031
LTGHVGNMWDAA	0.86 ± 0.025
LTILEPYFLLGP	0.732 ± 0.21
LTILRSPLPSLS	0.701 ± 0.019
LTKTAHVGQLWL	0.708 ± 0.025
LTLLFLHPFPST	0.753 ± 0.1
LTNISKIKILRY	0.653 ± 0.032
LTRPHPPPVRTP	0.711 ± 0.083
LTSDGGLSGCSL	0.67 ± 0.029
LTWVVNSGKGRC	0.918 ± 0.087
LTYVQPTKGTLG	0.654 ± 0.05
LVCYHLSLPSVR	0.675 ± 0.052
LVDHLEMSTTSL	0.724 ± 0.017
LVFLGLCGTDFV	0.676 ± 0.12
LVFRSGWVSLIG	0.641 ± 0.044
LVGGRGSRSVEA	0.739 ± 0.12
LVGLCSVFPSLV	0.716 ± 0.008

Sequence	protein stability index
LVHPPPPLLPPA	0.6 ± 0.018
LVKKVKSSLASL	0.65 ± 0.076
LVLERKVDSKRK	0.761 ± 0.084
LVLGRCWMSVPR	0.535 ± 0.014
LVLSGSAFFYLG	0.666 ± 0.029
LVLVEAPASRNP	0.72449 ± 0.00013
LVRCRKGEGRGA	0.701 ± 0.032
LVRDGQSHSVWN	0.655 ± 0.098
LVRRTLWGSGCL	0.666 ± 0.013
LVSGCLCRKVLV	0.531 ± 0.0017
LVVSLSYSFRSV	0.585 ± 0.045
LWGSGVYGKNEC	0.703 ± 0.052
LWKAGRIGTIWS	0.714 ± 0.016
LWLCLERFPCSR	0.74 ± 0.042
LWPQFPPRQLVD	0.755 ± 0.069
LWPSLRRFHSTS	0.714 ± 0.2
LWVGGKRREVMG	0.706 ± 0.032
LWVPPRSGRFGG	0.681 ± 0.014
LWWASRLRVPTP	0.674 ± 0.093
LYCLVEGVYTLI	0.662 ± 0.06
LYGREPAGAEPT	0.633 ± 0.022
LYHARTIRQSAK	0.701 ± 0.018
LYPVPLSPPPAD	0.676 ± 0.026

Sequence	protein stability index
LYVFFRFPSCLS	0.555 ± 0.018
MAINAGYYKWRH	0.767 ± 0.053
MALAVRVVNCGA	0.591 ± 0.0087
MATLRVPTLSPD	0.5743 ± 0.004
MAWTGIDAEVCV	0.67 ± 0.028
MCGENVSWSCRS	0.685 ± 0.038
MEDSRSDSSGSP	0.6534 ± 0.00074
MESIIHPNSGIV	0.744 ± 0.13
MFGCGSRGSGVV	0.695 ± 0.093
MFLPNPTLLTLN	0.559 ± 0.022
MGGLFGWLVFWI	0.653 ± 0.27
MGGMGRGGRREI	0.692 ± 0.022
MGKEELDKKDEG	0.625 ± 0.032
MGYYDGIRYKEV	0.735 ± 0.092
MILNLLLFRSKK	0.67 ± 0.05
MKPPIGGNKPGL	0.726 ± 0.017
MKRRSEGDLLQP	0.64 ± 0.047
MKSSPFRASLDT	0.676 ± 0.094
MNLAGRRAVEEW	0.659 ± 0.024
MNPRLTNKNNSS	0.765 ± 0.058
MNPSADYSIGAR	0.688 ± 0.062
MNVHGHERLRPS	0.678 ± 0.066
MPARGLAWLPVS	0.654 ± 0.064

Sequence	protein stability index
MPPRNAENRSLP	0.6793 ± 0.003
MPRSGRLSSRKE	0.718 ± 0.023
MPVWGGSASRAL	0.713 ± 0.066
MRAIRPGHSDLV	0.629 ± 0.043
MRRAQADRVYRL	0.7097 ± 0.0024
MRRNGRNILGVA	0.729 ± 0.054
MRVKRVEVVRGG	0.6903 ± 0.0061
MRWVISEDPGFR	0.695 ± 0.018
MSGPHGGVADRD	0.676 ± 0.054
MSKSLQTSSHKT	0.663 ± 0.018
MTEFSESEGFIF	0.735 ± 0.064
MTMGNWLRLKRR	0.62 ± 0.024
MTSCAVDHPERR	0.703 ± 0.0047
MTWQSASGNRVA	0.699 ± 0.056
MVISTRARCMFF	0.6727 ± 0.0059
MVSMFRLFLGLV	0.589 ± 0.016
MVWCVSRGEGPV	0.762 ± 0.037
MVYLSSQYSATT	0.661 ± 0.039
MWVRKPNGNGSF	0.6877 ± 0.0055
MYLLSFRALGSS	0.54 ± 0.0098
MYTCMSSNPLAC	0.66 ± 0.039
NAKQVYVSVMTR	0.5 ± 0.063
